Data from patent US20040043378A1.

Target: lysine-acetylated histone H4 peptide SGRGKGG-AcK-GLGK (Lys8 acetylated)
Test: 15N-HSQC backbone amide chemical shift change upon binding to the AcK peptide

- maximum weighted chemical shift difference (Tyr809): 0.16 ppm
Substance: bromodomain of P/CAF (residues 719-832 of SEQ ID NO:2) (from UniProt Q92831 719-832)
